Results: US20150105316A1 (TREVENA, published 2015)
Where no end group is shown, it is not given here. [ ]: non-standard residue; d: D form. Tle = CC(C)(C)[C@H](N)C(=O)O; Ac6c = NC1(C(=O)O)CCCCC1; cyHex = not defined here; cyPen = not defined here; Ac5c = NC1(C(=O)O)CCCC1; Sar = CNCC(=O)O

T1: human angiotensin 2 type 1 receptor (human, UniProt P30556 1-359)
T1 sequence (looked up): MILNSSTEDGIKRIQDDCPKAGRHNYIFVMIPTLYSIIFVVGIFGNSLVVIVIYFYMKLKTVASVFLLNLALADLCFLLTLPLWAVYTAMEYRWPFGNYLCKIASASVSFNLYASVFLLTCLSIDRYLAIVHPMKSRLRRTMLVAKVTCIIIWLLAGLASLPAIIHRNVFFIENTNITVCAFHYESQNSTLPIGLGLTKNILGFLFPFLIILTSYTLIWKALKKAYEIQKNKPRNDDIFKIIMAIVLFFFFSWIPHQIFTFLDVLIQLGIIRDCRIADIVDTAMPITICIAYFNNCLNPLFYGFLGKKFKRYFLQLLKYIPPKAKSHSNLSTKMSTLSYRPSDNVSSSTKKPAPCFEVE

T2: rat angiotensin 2 type 1 receptor (rat, UniProt P25095 1-359)
T2 sequence (looked up): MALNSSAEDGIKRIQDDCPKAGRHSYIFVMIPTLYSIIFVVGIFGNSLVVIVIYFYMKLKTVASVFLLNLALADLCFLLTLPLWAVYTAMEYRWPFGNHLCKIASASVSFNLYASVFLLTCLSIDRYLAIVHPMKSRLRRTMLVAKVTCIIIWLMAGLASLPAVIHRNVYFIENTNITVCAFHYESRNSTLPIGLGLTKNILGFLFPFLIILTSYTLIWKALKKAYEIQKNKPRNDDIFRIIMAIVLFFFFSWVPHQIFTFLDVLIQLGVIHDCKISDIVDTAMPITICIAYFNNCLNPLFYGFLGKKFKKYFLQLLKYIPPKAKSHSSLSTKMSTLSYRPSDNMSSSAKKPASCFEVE

B1: SEQ ID NO: 13 (Sar-Arg-Val-Tyr-cyHex-His-Pro-Val) (peptide)
peptide: [Sar]RVY[Ac6c]HPV
B2: SEQ ID NO: 2 (Sar-Arg-Val-Tyr-cyHex-His-Pro-Ala) (peptide)
peptide: [Sar]RVY[cyHex]HPA
modifications: reading uncertain; also: printed as Sar-Arg-Val-Tyr-cyHex-His-Pro-Ala
B3: SEQ ID NO: 56 (Sar-Arg-Val-Tyr-cyHex-His-Pro-AA02) (peptide)
peptide: [Sar]RVY[Ac6c]HP[Tle]
B4: SEQ ID NO: 3 (Sar-Arg-Val-Tyr-cyPen-His-Pro-Ala) (peptide)
peptide: [Sar]RVY[cyPen]HPA
modifications: reading uncertain; also: printed as Sar-Arg-Val-Tyr-cyPen-His-Pro-Ala
B5: SEQ ID NO: 23 (Sar-Arg-Val-Tyr-cyPen-His-Pro-Met) (peptide)
peptide: [Sar]RVY[Ac5c]HPM
B6: SEQ ID NO: 18 (Sar-Arg-Val-Tyr-cyPen-His-Pro-Ile) (peptide)
peptide: [Sar]RVY[Ac5c]HPI
B7: SEQ ID NO: 20 (Sar-Arg-Val-Tyr-cyPen-His-Pro-Val) (peptide)
peptide: [Sar]RVY[Ac5c]HPV
B8: SEQ ID NO: 38 (Sar-Arg-Val-Tyr-cyHex-His-Pro-Gln) (peptide)
peptide: [Sar]RVY[Ac6c]HPQ
B9: SEQ ID NO: 54 (Sar-Arg-Val-Tyr-cyHex-His-Pro-Trp) (peptide)
peptide: [Sar]RVY[Ac6c]HPW
B10: SEQ ID NO: 1 (Sar-Arg-Val-Tyr-Pro-His-Pro-Ala) (peptide)
peptide: [Sar]RVYPHPA
B11: SEQ ID NO: 19 (Sar-Arg-Val-Tyr-cyPen-His-Pro-Leu) (peptide)
peptide: [Sar]RVY[Ac5c]HPL
B12: SEQ ID NO: 39 (Sar-Arg-Val-Tyr-cyHex-His-Pro-Pro) (peptide)
peptide: [Sar]RVY[Ac6c]HPP
B13: SEQ ID NO: 24 (Sar-Arg-Val-Tyr-cyPen-His-Pro-Phe) (peptide)
peptide: [Sar]RVY[Ac5c]HPF
B14: SEQ ID NO: 22 (Sar-Arg-Val-Tyr-cyPen-His-Pro-Ser) (peptide)
peptide: [Sar]RVY[Ac5c]HPS
B15: SEQ ID NO: 55 (Sar-Arg-Val-Tyr-cyHex-His-Pro-Tyr) (peptide)
peptide: [Sar]RVY[Ac6c]HPY
B16: SEQ ID NO: 21 (Sar-Arg-Val-Tyr-cyPen-His-Pro-Thr) (peptide)
peptide: [Sar]RVY[Ac5c]HPT
B17: SEQ ID NO: 58 (Sar-Arg-Val-Tyr-NMeIle-His-Pro-Ala) (peptide)
peptide: XRVYXHPA
modifications: not fully specified; X1 Sar; X5 NMeIle
B18: SEQ ID NO: 44 (Sar-Arg-Val-Tyr-cyHex-His-Pro-Asp) (peptide)
peptide: [Sar]RVY[Ac6c]HPD

Target: T1, human angiotensin 2 type 1 receptor
Assay: cell-based or functional assay

Row | IP1 G-protein assay EC50 [nM] | IP1 G-protein assay pEC50 | IP1 G-protein assay Span | Binder
1 | > 1.3 | > 9.2 | – | B1
2 | – | < 9.2 | < 103 | B2
3 | > 1.3 | < 9.2 | < 103 | B3
4 | > 10000 | > 9.2 | – | B4
5 | > 1.3 | < 9.2 | < 103 | B5
6 | > 1.3 | < 9.2 | < 103 | B6
7 | > 1.3 | < 9.2 | < 103 | B7
8 | > 1.3 | < 9.2 | < 103 | B8
9 | > 1.3 | < 9.2 | < 103 | B9
10 | > 10000 | > 9.2 | – | B10
11 | > 1.3 | < 9.2 | < 103 | B11
12 | > 1.3 | < 9.2 | < 103 | B12
13 | < 1.3 | < 9.2 | > 103 | B13
14 | > 1.3 | > 9.2 | – | B14
15 | > 1.3 | < 9.2 | < 103 | B15
16 | > 1.3 | > 9.2 | – | B16

Target: T2, rat angiotensin 2 type 1 receptor
Assay: cell-based or functional assay

Row | IP1 G-protein assay EC50 [nM] | IP1 G-protein assay pEC50 | IP1 G-protein assay Span | Binder
17 | > 0.6 | > 9.2 | – | B1
18 | > 0.6 | < 9.2 | < 104 | B17
19 | > 0.6 | > 9.2 | – | B2
20 | > 0.6 | < 9.2 | < 104 | B3
21 | > 0.6 | < 9.2 | < 104 | B18
22 | > 0.6 | > 9.2 | – | B4
23 | > 0.6 | < 9.2 | < 104 | B5
24 | > 0.6 | < 9.2 | < 104 | B6
25 | > 0.6 | < 9.2 | < 104 | B7
26 | > 0.6 | < 9.2 | < 104 | B8
27 | > 0.6 | < 9.2 | < 104 | B9
28 | > 0.6 | < 9.2 | < 104 | B10
29 | > 0.6 | > 9.2 | – | B11
30 | > 0.6 | < 9.2 | < 104 | B12
31 | > 0.6 | < 9.2 | < 104 | B13
32 | > 0.6 | < 9.2 | < 104 | B14
33 | > 0.6 | < 9.2 | < 104 | B15
34 | > 0.6 | < 9.2 | < 104 | B16

Target: T1, human angiotensin 2 type 1 receptor
Assay: cell-based or functional assay
Remark: another data set of the same source

Row | beta-arrestin2 assay Span | beta-arrestin2 assay EC50 [nM] | beta-arrestin2 assay pEC50 | Binder
35 | < 101 | – | – | B17
36 | < 101 | – | – | B2
37 | < 101 | > 3.2 | < 8.5 | B3
38 | < 101 | > 3.2 | < 8.5 | B18
39 | < 101 | – | – | B4
40 | < 101 | > 3.2 | < 8.5 | B5
41 | < 101 | > 3.2 | < 8.5 | B6
42 | < 101 | > 3.2 | < 8.5 | B7
43 | < 101 | > 3.2 | < 8.5 | B8
44 | < 101 | > 3.2 | < 8.5 | B9
45 | < 101 | > 3.2 | < 8.5 | B10
46 | < 101 | > 3.2 | < 8.5 | B11
47 | < 101 | > 3.2 | < 8.5 | B12
48 | > 101 | > 3.2 | < 8.5 | B13
49 | < 101 | > 3.2 | < 8.5 | B14
50 | < 101 | > 3.2 | < 8.5 | B15
51 | < 101 | > 3.2 | < 8.5 | B16

Target: T2, rat angiotensin 2 type 1 receptor
Assay: cell-based or functional assay
Remark: another data set of the same source

Row | beta-arrestin2 assay EC50 [nM] | beta-arrestin2 assay Span | beta-arrestin2 assay pEC50 | Binder
52 | > 3.2 | < 105 | < 8.5 | B1
53 | – | < 105 | – | B17
54 | – | < 105 | – | B2
55 | > 3.2 | < 105 | < 8.5 | B3
56 | > 3.2 | < 105 | < 8.5 | B18
57 | – | < 105 | – | B4
58 | > 3.2 | < 105 | < 8.5 | B5
59 | > 3.2 | < 105 | < 8.5 | B6
60 | > 3.2 | < 105 | < 8.5 | B7
61 | > 3.2 | < 105 | < 8.5 | B8
62 | > 3.2 | < 105 | < 8.5 | B9
63 | > 3.2 | < 105 | < 8.5 | B10
64 | > 3.2 | < 105 | < 8.5 | B11
65 | > 3.2 | < 105 | < 8.5 | B12
66 | > 3.2 | < 105 | < 8.5 | B13
67 | > 3.2 | < 105 | < 8.5 | B14
68 | > 3.2 | < 105 | < 8.5 | B15
69 | > 3.2 | < 105 | < 8.5 | B16
